{"source": "patent US20220363738A1", "binders": {"B1": {"name": "ERp57 (PDIA3) on the surface of human MDA-MB-231 ER-G2 cells, P30101 25-505 (enzyme, UniProt P30101 25-505, looked up)", "chain": "SDVLELTDDNFESRISDTGSAGLMLVEFFAPWCGHCKRLAPEYEAAATRLKGIVPLAKVDCTANTNTCNKYGVSGYPTLKIFRDGEEAGAYDGPRTADGIVSHLKKQAGPASVPLRTEEEFKKFISDKDASIVGFFDDSFSEAHSEFLKAASNLRDNYRFAHTNVESLVNEYDDNGEGIILFRPSHLTNKFEDKTVAYTEQKMTSGKIKKFIQENIFGICPHMTEDNKDLIQGKDLLIAYYDVDYEKNAKGSNYWRNRVMMVAKKFLDAGHKLNFAVASRKTFSHELSDFGLESTAGEIPVVAIRTAKGEKFVMQEEFSRDGKALERFLQDYFDGNLKRYLKSEPIPESNDGPVKVVVAENFDEIVNNENKDVLIEFYAPWCGHCKNLEPKYKELGEKLSKDPNIVIAKMDATANDVPSPYEVRGFPTIYFSPANKKLNPKKYEGGRELSDFISYLQREATNPPVIQEEKPKKKKKAQEDL", "modifications": "here or on the partner: O-GalNAc (Tn) glycosylation at T50, T59, T66, T79, S81 and S86 after GALA activation"}}, "molecular_target": "T1, Calnexin (Cnx) on the surface of human cells (MDA-MB-231 ER-G2, Huh7, KP4) (human), P27824", "T1 chain": "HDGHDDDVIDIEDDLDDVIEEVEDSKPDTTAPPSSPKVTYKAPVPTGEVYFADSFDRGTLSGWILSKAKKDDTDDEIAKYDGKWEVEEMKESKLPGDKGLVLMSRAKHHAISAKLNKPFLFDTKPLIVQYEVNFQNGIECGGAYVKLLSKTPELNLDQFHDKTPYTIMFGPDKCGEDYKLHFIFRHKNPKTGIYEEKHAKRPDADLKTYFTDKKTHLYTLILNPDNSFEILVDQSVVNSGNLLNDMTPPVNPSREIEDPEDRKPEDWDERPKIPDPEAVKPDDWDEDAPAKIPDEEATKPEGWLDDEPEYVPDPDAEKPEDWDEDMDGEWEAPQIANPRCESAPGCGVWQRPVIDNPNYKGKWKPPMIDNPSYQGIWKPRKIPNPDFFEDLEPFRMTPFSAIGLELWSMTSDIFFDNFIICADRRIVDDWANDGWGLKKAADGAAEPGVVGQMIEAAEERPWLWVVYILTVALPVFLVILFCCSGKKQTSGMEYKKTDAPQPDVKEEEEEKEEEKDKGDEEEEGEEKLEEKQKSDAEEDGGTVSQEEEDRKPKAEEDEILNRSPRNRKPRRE", "experiment": "proximity ligation assay on live, intact cells, probes for Cnx and ERp57", "conditions": "remark: other sources report otherwise"}
{"binder": "B1", "values": [{"measurement": "proximity ligation assay signal, fold increase in MDA ER-G2 against wild-type MDA cells", "value": 10, "unit": "fold"}]}
